In the assay the target is H1 A/New Caledonia/20/1999 haemagglutinin, wild-type trimeric protein (influenza A virus A/New Caledonia/20/1999 (H1N1)) (UniProt Q6WG00). The experiment in a line: ELISA. (In general: ELISA stands for enzyme-linked immunosorbent assay.)

This passage reports ELISA endpoint dilution titre results from publication PMC7095019.

“CR6261 inferred germline antibody, germline heavy and germline light chain, soluble IgG” had an ELISA endpoint dilution titre above 100 µg/mL. The result for “CR6261 somatic (mature) antibody, somatic heavy and somatic light chain, soluble IgG” reads 0.00133 µg/mL.
